Measurements reported in patent US20240301064A1 (published 2024).

Target: T1, human PD-1 (human, UniProt Q15116 25-167, limits assumed)
T1 construct: also called huPD-1
Experiment: BLI, antibody on AHC tip, soluble PD-1

T1 sequence (Q15116 25-167 limits assumed): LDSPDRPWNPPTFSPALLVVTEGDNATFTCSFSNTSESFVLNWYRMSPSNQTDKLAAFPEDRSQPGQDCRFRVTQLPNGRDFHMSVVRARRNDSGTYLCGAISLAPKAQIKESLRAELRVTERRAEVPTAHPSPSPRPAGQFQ

Kd | Binder
553 nM | PMAB208 (bispecific antibody, human IgG1, kappa) heavy: QVQLVQSGAEVKKPGASVKVSCKASGYTFSDHYMHWVRQAPGQGLEWMGTIAPSGGRTSYAQKFQGRVTMTRDTSTSTVYMELSSLRSEDTAVYYCAADNGHASGWLYYYGMDVWGQGTTVTVSSASTKGPSVFPLAPSSKSTSGGTAALGCLVKDYFPEPVTVSWNSGALTSGVHTFPAVLQSSGLYSLSSVVTVPSSSLGTQTYICNVNHKPSNTKVDKKVEPKSCDKTHTCPPCPAPEAAGAPSVFLFPPKPKDTLMISRTPEVTCVVVDVSHEDPEVKFNWYVDGVEVHNAKTKPREEQYNSTYRVVSVLTVLHQDWLNGKEYKCKVSNKALPAPIEKTISKAKGQPREPQVYTLPPSREEMTKNQVSLTCLVKGFYPSDIAVEWESNGQPENNYKTTPPVLDSDGSFFLYSKLTVDKSRWQQGNVFSCSVMHEALHNHYTQKSLSLSPGGGGGSGGGGSGGGGSEVQLLESGGGLVQPGGSLRLSCAASGFTFSDFWMHWVRQAPGKGLEWISYISGDSGYTNYADSVKGRFTISRDNSKNTLYLQMNSLRAEDTAVYYCARDRPYYYYMDVWGKGTTVTVSSGGGGSGGGGSGGGGSGGGGSDIQMTQSPSSLSASVGDRVTITCRASQSVSRSLAWYQQKPGKAPKLLIYAASSLQSGVPSRFSGSGSGTDFTLTISSLQPEDFATYYCQQYKSYPVTFGQGTKVEIK light: not shown
687 nM | PMAB209 (bispecific antibody, human IgG1, kappa) heavy: QVQLVQSGAEVKKPGASVKVSCKASGYTFSDHYMHWVRQAPGQGLEWMGTIAPSGGRTSYAQKFQGRVTMTRDTSTSTVYMELSSLRSEDTAVYYCAADNGHASGWLYYYGMDVWGQGTTVTVSSASTKGPSVFPLAPSSKSTSGGTAALGCLVKDYFPEPVTVSWNSGALTSGVHTFPAVLQSSGLYSLSSVVTVPSSSLGTQTYICNVNHKPSNTKVDKKVEPKSCDKTHTCPPCPAPEAAGAPSVFLFPPKPKDTLMISRTPEVTCVVVDVSHEDPEVKFNWYVDGVEVHNAKTKPREEQYNSTYRVVSVLTVLHQDWLNGKEYKCKVSNKALPAPIEKTISKAKGQPREPQVYTLPPSREEMTKNQVSLTCLVKGFYPSDIAVEWESNGQPENNYKTTPPVLDSDGSFFLYSKLTVDKSRWQQGNVFSCSVMHEALHNHYTQKSLSLSPGGGGGSGGGGSGGGGSEVQLLESGGGLVQPGGSLRLSCAASGFTFSDFWMHWVRQAPGKGLEWISYISGDSGYTNYADSVKGRFTISRDNSKNTLYLQMNSLRAEDTAVYYCARDRPYYYYMDVWGKGTTVTVSSGGGGSGGGGSGGGGSGGGGSDIQMTQSPSSLSASVGDRVTITCRASQSVSRSLAWYQQKPGKAPKLLIYAASSLQSGVPSRFSGSGSGTDFTLTISSLQPEDFATYYCQQYKSYPVTFGQGTKVEIK light: not shown
3130 nM | PMAB210 (bispecific antibody, human IgG1, kappa) heavy: QVQLVQSGAEVKKPGASVKVSCKASGYTFSDHYMHWVRQAPGQGLEWMGTIAPSGGRTSYAQKFQGRVTMTRDTSTSTVYMELSSLRSEDTAVYYCAADNGHASGWLYYYGMDVWGQGTTVTVSSASTKGPSVFPLAPSSKSTSGGTAALGCLVKDYFPEPVTVSWNSGALTSGVHTFPAVLQSSGLYSLSSVVTVPSSSLGTQTYICNVNHKPSNTKVDKKVEPKSCDKTHTCPPCPAPEAAGAPSVFLFPPKPKDTLMISRTPEVTCVVVDVSHEDPEVKFNWYVDGVEVHNAKTKPREEQYNSTYRVVSVLTVLHQDWLNGKEYKCKVSNKALPAPIEKTISKAKGQPREPQVYTLPPSREEMTKNQVSLTCLVKGFYPSDIAVEWESNGQPENNYKTTPPVLDSDGSFFLYSKLTVDKSRWQQGNVFSCSVMHEALHNHYTQKSLSLSPGGGGGSGGGGSGGGGSEVQLLESGGGLVQPGGSLRLSCAASGFTFSDFWMHWVRQAPGKGLEWISYISGDSGYTNYADSVKGRFTISRDNSKNTLYLQMNSLRAEDTAVYYCARDRPYYYYMDVWGKGTTVTVSSGGGGSGGGGSGGGGSGGGGSDIQMTQSPSSLSASVGDRVTITCRASQSVSRSLAWYQQKPGKAPKLLIYAASSLQSGVPSRFSGSGSGTDFTLTISSLQPEDFATYYCQQYKSYPVTFGQGTKVEIK light: not shown

The next lines start with the binder.

Binder | Kd
PMAB213 (bispecific antibody, human IgG1, kappa) heavy: QVQLVQSGAEVKKPGASVKVSCKASGYTFSDHYMHWVRQAPGQGLEWMGTIAPSGGRTSYAQKFQGRVTMTRDTSTSTVYMELSSLRSEDTAVYYCAADNGHASGWLYYYGMDVWGQGTTVTVSSASTKGPSVFPLAPSSKSTSGGTAALGCLVKDYFPEPVTVSWNSGALTSGVHTFPAVLQSSGLYSLSSVVTVPSSSLGTQTYICNVNHKPSNTKVDKKVEPKSCDKTHTCPPCPAPEAAGAPSVFLFPPKPKDTLMISRTPEVTCVVVDVSHEDPEVKFNWYVDGVEVHNAKTKPREEQYNSTYRVVSVLTVLHQDWLNGKEYKCKVSNKALPAPIEKTISKAKGQPREPQVYTLPPSREEMTKNQVSLTCLVKGFYPSDIAVEWESNGQPENNYKTTPPVLDSDGSFFLYSKLTVDKSRWQQGNVFSCSVMHEALHNHYTQKSLSLSPGGGGGSGGGGSGGGGSEVQLLESGGGLVQPGGSLRLSCAASGFTFSDFWMHWVRQAPGKGLEWISYISGDSGYTNYADSVKGRFTISRDNSKNTLYLQMNSLRAEDTAVYYCARDRPYYYYMDVWGKGTTVTVSSGGGGSGGGGSGGGGSGGGGSDIQMTQSPSSLSASVGDRVTITCRASQSVSRSLAWYQQKPGKAPKLLIYAASSLQSGVPSRFSGSGSGTDFTLTISSLQPEDFATYYCQQYKSYPVTFGQGTKVEIK light: not shown | 1430 nM
PMAB211 (bispecific antibody, human IgG1, kappa) heavy: QVQLVQSGAEVKKPGASVKVSCKASGYTFSDHYMHWVRQAPGQGLEWMGTIAPSGGRTSYAQKFQGRVTMTRDTSTSTVYMELSSLRSEDTAVYYCAADNGHASGWLYYYGMDVWGQGTTVTVSSASTKGPSVFPLAPSSKSTSGGTAALGCLVKDYFPEPVTVSWNSGALTSGVHTFPAVLQSSGLYSLSSVVTVPSSSLGTQTYICNVNHKPSNTKVDKKVEPKSCDKTHTCPPCPAPEAAGAPSVFLFPPKPKDTLMISRTPEVTCVVVDVSHEDPEVKFNWYVDGVEVHNAKTKPREEQYNSTYRVVSVLTVLHQDWLNGKEYKCKVSNKALPAPIEKTISKAKGQPREPQVYTLPPSREEMTKNQVSLTCLVKGFYPSDIAVEWESNGQPENNYKTTPPVLDSDGSFFLYSKLTVDKSRWQQGNVFSCSVMHEALHNHYTQKSLSLSPGGGGGSGGGGSGGGGSEVQLLESGGGLVQPGGSLRLSCAASGFTFSDFWMHWVRQAPGKGLEWISYISGDSGYTNYADSVKGRFTISRDNSKNTLYLQMNSLRAEDTAVYYCARDRPYYYYMDVWGKGTTVTVSSGGGGSGGGGSGGGGSGGGGSDIQMTQSPSSLSASVGDRVTITCRASQSVSRSLAWYQQKPGKAPKLLIYAASSLQSGVPSRFSGSGSGTDFTLTISSLQPEDFATYYCQQYKSYPVTFGQGTKVEIK light: not shown | 1300 nM
PMAB212 (bispecific antibody, human IgG1, kappa) heavy: QVQLVQSGAEVKKPGASVKVSCKASGYTFSDHYMHWVRQAPGQGLEWMGTIAPSGGRTSYAQKFQGRVTMTRDTSTSTVYMELSSLRSEDTAVYYCAADNGHASGWLYYYGMDVWGQGTTVTVSSASTKGPSVFPLAPSSKSTSGGTAALGCLVKDYFPEPVTVSWNSGALTSGVHTFPAVLQSSGLYSLSSVVTVPSSSLGTQTYICNVNHKPSNTKVDKKVEPKSCDKTHTCPPCPAPEAAGAPSVFLFPPKPKDTLMISRTPEVTCVVVDVSHEDPEVKFNWYVDGVEVHNAKTKPREEQYNSTYRVVSVLTVLHQDWLNGKEYKCKVSNKALPAPIEKTISKAKGQPREPQVYTLPPSREEMTKNQVSLTCLVKGFYPSDIAVEWESNGQPENNYKTTPPVLDSDGSFFLYSKLTVDKSRWQQGNVFSCSVMHEALHNHYTQKSLSLSPGGGGGSGGGGSGGGGSEVQLLESGGGLVQPGGSLRLSCAASGFTFSDFWMHWVRQAPGKGLEWISYISGDSGYTNYADSVKGRFTISRDNSKNTLYLQMNSLRAEDTAVYYCARDRPYYYYMDVWGKGTTVTVSSGGGGSGGGGSGGGGSGGGGSDIQMTQSPSSLSASVGDRVTITCRASQSVSRSLAWYQQKPGKAPKLLIYAASSLQSGVPSRFSGSGSGTDFTLTISSLQPEDFATYYCQQYKSYPVTFGQGTKVEIK light: not shown | 1090 nM
